B1: POLD4 (parent)
chain: ITDSYPVVKRREGPAGHSKGELAP

Variants of: B1
Experiment: protein stability index of a GFP-peptide fusion (GPS, HEK-293T) (PSI 1-6); higher = more stable
Conditions: c terminus: a fixed tail appended
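Note: lentivirally expressed fusions sorted by FACS into six bins by GFP to DsRed ratio, PSI derived from sequencing read proportions per bin multiplied by bin number.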

Protein stability index, by site and new letter:
E12: N 2.85; M 2.87; L 2.87; I 3.53; K 3.11; R 2.65; Y 2.48; P 3.26; Q 4.16; V 2.72; H 2.72; S 2.69; T 3.41; G 3.01; W 2.88
H17: S 3.78; N 3.54; I 3.49; E 4.36; Q 3.51; P 2.5; C 2.06; A 2.97; R 3.35; D 2.31; F 3.01; V 3.2; Y 2.66; L 3.49; K 4.05; T 3.91
G20: P 4; D 3.55; E 2.93; C 3.79; H 2.22; F 2.81; K 2.62; Y 2.92; T 2.67; W 2.83; M 3.49; A 3.06; S 2.58; N 4.09; Q 2.41; V 3.07; L 3.11; I 2.99
G13: D 3.94; A 2.92; S 3.22; Y 3.11; F 2.45; W 2.5; T 3.19; R 3.7; I 2.7; P 4.43; H 3.24; C 3.87; E 3.86; V 2.62; N 2.78; L 2.75; Q 3.32
S18: K 3.02; Y 2.46; I 3.44; V 2.1; G 3.94; E 3.26; H 3.35; N 2.22; F 2.91; T 2.87; W 2.8; D 4.01; P 2.84; R 3.14; A 3.01; C 3.17; M 2.68; L 2.91; Q 3.65
P14: F 3.28; H 3.84; L 3.24; A 3.82; N 3.55; W 2.84; T 3.57; I 3.1; V 1.93; G 2.98; M 3.06; Q 3.89; S 2.43; C 3.14; K 2.97; R 2.46; E 4.1; D 2.94; Y 2.81
G16: S 2.51; I 2.72; Q 3.5; F 3.33; P 3.28; Y 2.39; K 3.07; L 2.49; D 3.77; M 2.56; A 4.75; W 2.66; N 2.82; R 3.64; E 3.83; H 3.08; C 3.52; T 3.62; V 2.57
E21: F 2.64; G 3.23; C 3.14; H 3.23; N 3.1; K 3; P 4.46; M 2.6; D 3.37; L 2.85; I 2.96
K19: Y 3.06; F 2.48; M 2.9; P 4.07; H 3.56; G 3.89; R 2.81; L 2.81; N 2.59; V 3.37; S 3.46; Q 3.16; I 2.79; T 3.62; D 3.96; E 3.28
A15: I 2.58; T 2.22; N 2.97; S 2.8; E 3.33; H 2.75; R 3.27; C 2.8; D 2.81; F 2.41; Q 2.94; P 3.03; L 3.32; V 3.23; Y 3.75; K 3.45; M 3.08
